Measured values published in US20210308260A1.

Target: OVA-specific T-cell antigen receptor of OT1 transgenic mice (mouse)
Assay: flow cytometry, OVA tetramer staining of peripheral blood CD8+ T cells of OT1 mice

proportion of CD8+ T cells specifically recognized by OVA (tetramer-positive): 95.3%
Substance: OVA tetramer (peptide-MHC)
